To fix the notation:
B1: Pistol ribozyme (parent)
chain: GGGUCGUUGUUCCAUAAUCGCGUGGAUAUGGCACGCAAGUUUCUACCGGGCACCGUAAAUGUCCGACUGGAGCCGUUCGGGCGGCUAUAAACAGACCUCAGGCCCGAAGCGUGGCGGCACCUGCCGCCGGUGGUAAAAAAGAUCGGAAGAGCACACGUCU

The data set covers variants of B1. Description: aptazyme ON/OFF ratio, guanine; higher = stronger switching; co-transcriptional cleavage with and without guanine.
As for GGGUCGUCCUGUGAUAAUCGCGUGGAUAUGGCACGCAAGUUUCUACCGGGCACCGUAAAUGUCCGACUGGAGCCGUUCGGGCGGCUAUAAACAGACCUCAGGCCCGAAGCGUGGCGGCACCUGCCGCCGGUGGUAAAAAAGAUCGGAAGAGCACACGUCU, the “aptazyme ON/OFF ratio” value came to 1.11.
To GGGUCGUCCUGUAAUAAUCGCGUGGAUAUGGCACGCAAGUUUCUACCGGGCACCGUAAAUGUCCGACUGGAGCCGUUCGGGCGGCUAUAAACAGACCUCAGGCCCGAAGCGUGGCGGCACCUGCCGCCGGUGGUAAAAAAGAUCGGAAGAGCACACGUCU belongs 1.09; to GGGUCGUCCUGUUAUAAUCGCGUGGAUAUGGCACGCAAGUUUCUACCGGGCACCGUAAAUGUCCGACUGGAGCCGUUCGGGCGGCUAUAAACAGACCUCAGGCCCGAAGCGUGGCGGCACCUGCCGCCGGUGGUAAAAAAGAUCGGAAGAGCACACGUCU, 1.1; to GGGUCGUCCUCUUAUAAUCGCGUGGAUAUGGCACGCAAGUUUCUACCGGGCACCGUAAAUGUCCGACUGGAGCCGUUCGGGCGGCUAUAAACAGACCUCAGGCCCGAAGCGUGGCGGCACCUGCCGCCGGUGGUAAAAAAGAUCGGAAGAGCACACGUCU, 1.07.
For GGGUCGUCCUCUGAUAAUCGCGUGGAUAUGGCACGCAAGUUUCUACCGGGCACCGUAAAUGUCCGACUGGAGCCGUUCGGGCGGCUAUAAACAGACCUCAGGCCCGAAGCGUGGCGGCACCUGCCGCCGGUGGUAAAAAAGAUCGGAAGAGCACACGUCU, the “aptazyme ON/OFF ratio” value was determined as 1.02.
Under GGGUCGUCCUCUAAUAAUCGCGUGGAUAUGGCACGCAAGUUUCUACCGGGCACCGUAAAUGUCCGACUGGAGCCGUUCGGGCGGCUAUAAACAGACCUCAGGCCCGAAGCGUGGCGGCACCUGCCGCCGGUGGUAAAAAAGAUCGGAAGAGCACACGUCU stands 1.05.
As to GGGUCGUCUUUACAUAAUCGCGUGGAUAUGGCACGCAAGUUUCUACCGGGCACCGUAAAUGUCCGACUGGAGCCGUUCGGGCGGCUAUAAACAGACCUCAGGCCCGAAGCGUGGCGGCACCUGCCGCCGGUGGUAAAAAAGAUCGGAAGAGCACACGUCU, the “aptazyme ON/OFF ratio” value was 1.37.
Take GGGUCGUCUUUGCAUAAUCGCGUGGAUAUGGCACGCAAGUUUCUACCGGGCACCGUAAAUGUCCGACUGGAGCCGUUCGGGCGGCUAUAAACAGACCUCAGGCCCGAAGCGUGGCGGCACCUGCCGCCGGUGGUAAAAAAGAUCGGAAGAGCACACGUCU: the “aptazyme ON/OFF ratio” value is 1.42.
Consider GGGUCGUCCUGCGAUAAUCGCGUGGAUAUGGCACGCAAGUUUCUACCGGGCACCGUAAAUGUCCGACUGGAGCCGUUCGGGCGGCUAUAAACAGACCUCAGGCCCGAAGCGUGGCGGCACCUGCCGCCGGUGGUAAAAAAGAUCGGAAGAGCACACGUCU, for which the “aptazyme ON/OFF ratio” value amounted to 1.19.
Consider GGGUCGUCCUGCUAUAAUCGCGUGGAUAUGGCACGCAAGUUUCUACCGGGCACCGUAAAUGUCCGACUGGAGCCGUUCGGGCGGCUAUAAACAGACCUCAGGCCCGAAGCGUGGCGGCACCUGCCGCCGGUGGUAAAAAAGAUCGGAAGAGCACACGUCU, for which the “aptazyme ON/OFF ratio” value amounted to 1.1.
For GGGUCGUCCUGCAAUAAUCGCGUGGAUAUGGCACGCAAGUUUCUACCGGGCACCGUAAAUGUCCGACUGGAGCCGUUCGGGCGGCUAUAAACAGACCUCAGGCCCGAAGCGUGGCGGCACCUGCCGCCGGUGGUAAAAAAGAUCGGAAGAGCACACGUCU, the “aptazyme ON/OFF ratio” value was determined as 1.09.
To GGGUCGUCCUCAGAUAAUCGCGUGGAUAUGGCACGCAAGUUUCUACCGGGCACCGUAAAUGUCCGACUGGAGCCGUUCGGGCGGCUAUAAACAGACCUCAGGCCCGAAGCGUGGCGGCACCUGCCGCCGGUGGUAAAAAAGAUCGGAAGAGCACACGUCU belongs 1.07; to GGGUCGUCCUCAUAUAAUCGCGUGGAUAUGGCACGCAAGUUUCUACCGGGCACCGUAAAUGUCCGACUGGAGCCGUUCGGGCGGCUAUAAACAGACCUCAGGCCCGAAGCGUGGCGGCACCUGCCGCCGGUGGUAAAAAAGAUCGGAAGAGCACACGUCU, 1.06; to GGGUCGUCUUUAGAUAAUCGCGUGGAUAUGGCACGCAAGUUUCUACCGGGCACCGUAAAUGUCCGACUGGAGCCGUUCGGGCGGCUAUAAACAGACCUCAGGCCCGAAGCGUGGCGGCACCUGCCGCCGGUGGUAAAAAAGAUCGGAAGAGCACACGUCU, 1.12.
Consider GGGUCGUCUUUAAAUAAUCGCGUGGAUAUGGCACGCAAGUUUCUACCGGGCACCGUAAAUGUCCGACUGGAGCCGUUCGGGCGGCUAUAAACAGACCUCAGGCCCGAAGCGUGGCGGCACCUGCCGCCGGUGGUAAAAAAGAUCGGAAGAGCACACGUCU, for which the “aptazyme ON/OFF ratio” value stood at 1.28.
With GGGUCGUCUUUAUAUAAUCGCGUGGAUAUGGCACGCAAGUUUCUACCGGGCACCGUAAAUGUCCGACUGGAGCCGUUCGGGCGGCUAUAAACAGACCUCAGGCCCGAAGCGUGGCGGCACCUGCCGCCGGUGGUAAAAAAGAUCGGAAGAGCACACGUCU, the “aptazyme ON/OFF ratio” value worked out at 1.19.
On to GGGUCGUCCUCCGAUAAUCGCGUGGAUAUGGCACGCAAGUUUCUACCGGGCACCGUAAAUGUCCGACUGGAGCCGUUCGGGCGGCUAUAAACAGACCUCAGGCCCGAAGCGUGGCGGCACCUGCCGCCGGUGGUAAAAAAGAUCGGAAGAGCACACGUCU, for which the “aptazyme ON/OFF ratio” value is 1.04.
For GGGUCGUCCUCCUAUAAUCGCGUGGAUAUGGCACGCAAGUUUCUACCGGGCACCGUAAAUGUCCGACUGGAGCCGUUCGGGCGGCUAUAAACAGACCUCAGGCCCGAAGCGUGGCGGCACCUGCCGCCGGUGGUAAAAAAGAUCGGAAGAGCACACGUCU, the “aptazyme ON/OFF ratio” value turned out to be 1.04.

Source of the values: the RNAGym collection of RNA variant scans (doi:10.1021/acssynbio.7b00057).
